Measured values: patent US7166454

Biological target: T1, peptide substrate KSEVNLDAEFRK derived from the sequence of Swedish amyloid precursor protein
T1 chain: KSEVNLDAEFRK

B1: β-secretase refolded from E. coli overexpression (protein)
chain: TQHGIRLPLRSGLGGAPLGLRLPRETDEEPEEPGRRGSFVEMVDNLRGKSGQGYYVEMTVGSPPQTLNILVDTGSSNFAVGAAPHPFLHRYYQRQLSSTYRDLRKGVYVPYTQGKWEGELGTDLVSIPHGPNVTVRANIAAITESDKFFINGSNWEGILGLAYAEIARPDDSLEPFFDSLVKQTHVPNLFSLQLCGAGFPLNQSEVLASVGGSMIIGGIDHSLYTGSLWYTPIRREWYYEVIIVRVEINGQDLKMDCKEYNYDKSIVDSGTTNLRLPKKVFEAAVKSIKAASSTEKFPDGFWLGEQLVCWQAGTTPWNIFPVISLYLMGEVTNQSFRITILPQQYLRPVEDVATSQDDCYKFAISQSSTGTVMGAVIMEGFYVVFDRARKRIGFAVSACHVHDEFRTAAVEGPFVTLDMEDCGYNIPQTDEST
  specificity constant (Kcat/Km): 1800 ± 100 M⁻¹ s⁻¹
